Experimental data published in patent publication US20200079855A1 (Pfizer, published 2020).
Changes are numbered by the printed parent chain. Names may count otherwise. “And” between values parts separate entries of the source, which are not always exact repeats. Equal values may be shown once. Each block holds one binder with its values, some of them ahead of it.

Assays:
[1] = target: T1, human αvβ8 integrin on U251 cells (human, UniProt P06756 31-1048); experiment: apparent KD, flow cytometry on U251 cells
[2] = target: T1, human αvβ8 integrin on U251 cells; experiment: flow cytometry, IgG binding to U251 cells (ΔMFI, background subtracted); EC50 unit inferred, axis Log10 [Ab] (nM); Table 7 of the text gives the rounded value as U251 app KD 823 pM
[3] = target: T1, human αvβ8 integrin on U251 cells; experiment: flow cytometry, IgG binding to U251 cells (ΔMFI, background subtracted); EC50 unit inferred, axis Log10 [Ab] (nM); Table 7 of the text gives U251 app KD 430 pM
[4] = target: T1, human αvβ8 integrin on U251 cells; experiment: cell-based or functional assay
[5] = target: T2, mouse αvβ8 integrin on C8-S cells (mouse, UniProt P43406 31-1044; Q0VBD0 22-767); experiment: flow cytometry, IgG binding to C8-S cells (MFI PE-A), right panel ADWA11_IgG_C8-S cell binding; EC50 unit inferred, axis Log10 [mAb] nM
T2 construct: Endogenous αvβ8 of C8-S mouse astrocyte cells; also called C8-S (mouse astrocyte); C8-S (mouse avb8)
Procedure: 100,000 cells were incubated with a dilution series of the anti-αvβ8 or human IgG1_3 mut Isotype antibody for three to four hours on ice. The cells were spun down for five minutes at 300 g force. The cells were then washed three times with wash buffer (PBS+0.2% BSA) to remove excess unbound antibodies. After thorough washing, cells were incubated with Fab′2 anti-human Fc-PE (Invitrogen) or goat Fab′2 anti-mouse-APC (Jackson Labs) at 1:1000 dilution along with LIVE/DEAD fixable cell stain (Invitrogen) at 1:2000 to distinguish live cells. The whole content was incubated for 30 minutes on ice. After washing, the stained cells were analyzed on BD biosciences Fortessa flow cytometer (gated for live cells) using FlowJo analysis software. The mean fluorescence intensities (MFI) at different antibody concentrations were plotted for various antibodies.
The apparent-affinity of ADWA11 2.4 for U251 (human glioblastoma) or C8-S (mouse astrocyte) cells was also evaluated in a cell-binding assay, according to the methods as generally described herein. Briefly, cells were incubated with a serial dilution of ADWA11 2.4 for 4 hours on ice, followed by detection on bound antibody with an anti-human-PE secondary antibody, and analyzed by flow cytometry.

[6] = target: T3, recombinant human αvβ3 integrin (human, UniProt P06756 31-992; P05106 27-718); experiment: Biacore, recombinant human αvβ3 immobilised on the chip; concentration not shown
T3 construct: Used in ELISA and immobilised on the Biacore chip; construct not described; also called hαvβ3; AVB3
Procedure: (§1) To evaluate the specificity of ADWA11 2.4, recombinant human αvβ6 and αvβ3 were immobilized on a Biacore chip and binding of the parental murine and humanized mAb variant of ADWA11 2.4 was determined.

[7] = target: T1, human αvβ8 integrin on U251 cells; experiment: flow cytometry, IgG binding to U251 cells (MFI PE-A), left panel ADWA11_IgG_U251 cell binding; EC50 unit inferred, axis Log10 [mAb] nM
[8] = target: T4, recombinant human αvβ6 integrin (human, UniProt P06756 31-992; P18564 22-707); experiment: Biacore, recombinant human αvβ6 immobilised on the chip; concentration not shown
T4 construct: Used in ELISA and immobilised on the Biacore chip; construct not described; also called hαvβ6; AVB6
Procedure: as §1

[9] = target: recombinant human αvβ8 integrin (human) (UniProt P06756); experiment: SPR (Biacore T200), Fab over biotinylated recombinant αvβ8 on streptavidin chip, n>=3
[10] = target: recombinant human αvβ8 integrin (human) (UniProt P06756); experiment: ELISA (DELFIA counts) on human αvβ8, Fab titration; identity of the molecule see the row before
[11] = target: T5, recombinant mouse αvβ8 integrin (mouse, UniProt P43406 31-988; Q0VBD0 22-681, limits assumed); experiment: SPR (Biacore T200), Fab over biotinylated recombinant αvβ8 on streptavidin chip, n>=3
T5 construct: Recombinant protein immobilised on the Biacore chip
Procedure: (§2) More specifically, recombinant αvβ8 integrin (e.g., R&D Systems) was biotin labeled via primary amines and immobilized on a Sensor Chip SA using a Biacore™ T200 instrument (GE Healthcare Life Sciences). Fab binding experiments were performed at 25° C. using a 30 μl/min flow rate in 0.01 M HEPES pH 7.4, 0.15 M NaCl, 1-2 mM MgCl₂, and 0.005% v/v surfactant P20 (HBS-P) buffer. Association was monitored for 5-10 minutes and dissociation for a further 15-20 minutes for each Fab concentration. After each injection, the chip surface was regenerated with IgG elution buffer (Thermo Fisher Scientific). All data was analyzed using the Biacore™ T200 Evaluation software. Data was dual background subtracted using the adjacent flow cell coupled with streptavidin without captured integrin, and buffer only injections. Kinetic constants for at least three experiments were obtained and reported as the mean.
(§3) To evaluate the monomeric KD of the Fab ADWA11 2.4, also referred to herein as ADWA-11 VH05-2/VK01(2.4) and ADWA11 5-2 2.4, and the parental mouse IgG, recombinant human, cynomolgus, mouse, and rat αvβ8 was immobilized on a Biacore chip and the ka and kd of the Fabs were determined as generally described herein (Table 6).

[12] = target: T6, recombinant rat αvβ8 integrin (rat, UniProt F1LZX9 31-987; A0A0G2JVU1 43-682); experiment: as above
T6 construct: Recombinant protein immobilised on the Biacore chip
Procedure: as §2, §3

[13] = target: T7, recombinant cynomolgus monkey αvβ8 integrin (cynomolgus monkey, limits assumed); experiment: as above
T7 construct: Recombinant protein immobilised on the Biacore chip; also called cyno αvβ8; cynomolgus αvβ8
T7 chain 1: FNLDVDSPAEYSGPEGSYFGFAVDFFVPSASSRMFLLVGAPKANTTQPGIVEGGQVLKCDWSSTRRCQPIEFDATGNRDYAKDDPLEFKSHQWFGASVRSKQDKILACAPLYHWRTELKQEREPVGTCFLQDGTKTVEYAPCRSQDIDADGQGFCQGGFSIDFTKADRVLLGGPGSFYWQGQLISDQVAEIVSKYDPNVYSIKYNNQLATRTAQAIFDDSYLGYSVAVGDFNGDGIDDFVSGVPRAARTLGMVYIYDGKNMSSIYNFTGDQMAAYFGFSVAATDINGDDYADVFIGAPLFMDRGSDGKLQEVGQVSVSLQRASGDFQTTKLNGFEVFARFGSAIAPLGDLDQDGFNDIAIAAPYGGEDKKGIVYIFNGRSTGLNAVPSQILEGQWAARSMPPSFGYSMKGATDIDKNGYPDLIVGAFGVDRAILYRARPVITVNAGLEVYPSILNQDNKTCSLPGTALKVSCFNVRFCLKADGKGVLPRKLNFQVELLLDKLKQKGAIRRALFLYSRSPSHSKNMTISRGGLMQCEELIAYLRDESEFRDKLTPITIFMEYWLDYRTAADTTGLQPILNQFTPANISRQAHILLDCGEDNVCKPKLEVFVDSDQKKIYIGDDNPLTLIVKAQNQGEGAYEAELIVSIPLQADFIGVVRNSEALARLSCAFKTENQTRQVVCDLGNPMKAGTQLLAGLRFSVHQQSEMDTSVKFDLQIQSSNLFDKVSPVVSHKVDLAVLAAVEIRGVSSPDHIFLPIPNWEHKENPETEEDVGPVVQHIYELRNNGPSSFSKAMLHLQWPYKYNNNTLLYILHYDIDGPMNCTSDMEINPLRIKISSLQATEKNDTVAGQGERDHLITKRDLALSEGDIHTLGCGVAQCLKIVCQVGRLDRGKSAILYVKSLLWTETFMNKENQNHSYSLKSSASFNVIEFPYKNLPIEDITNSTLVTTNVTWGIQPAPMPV
T7 chain 2: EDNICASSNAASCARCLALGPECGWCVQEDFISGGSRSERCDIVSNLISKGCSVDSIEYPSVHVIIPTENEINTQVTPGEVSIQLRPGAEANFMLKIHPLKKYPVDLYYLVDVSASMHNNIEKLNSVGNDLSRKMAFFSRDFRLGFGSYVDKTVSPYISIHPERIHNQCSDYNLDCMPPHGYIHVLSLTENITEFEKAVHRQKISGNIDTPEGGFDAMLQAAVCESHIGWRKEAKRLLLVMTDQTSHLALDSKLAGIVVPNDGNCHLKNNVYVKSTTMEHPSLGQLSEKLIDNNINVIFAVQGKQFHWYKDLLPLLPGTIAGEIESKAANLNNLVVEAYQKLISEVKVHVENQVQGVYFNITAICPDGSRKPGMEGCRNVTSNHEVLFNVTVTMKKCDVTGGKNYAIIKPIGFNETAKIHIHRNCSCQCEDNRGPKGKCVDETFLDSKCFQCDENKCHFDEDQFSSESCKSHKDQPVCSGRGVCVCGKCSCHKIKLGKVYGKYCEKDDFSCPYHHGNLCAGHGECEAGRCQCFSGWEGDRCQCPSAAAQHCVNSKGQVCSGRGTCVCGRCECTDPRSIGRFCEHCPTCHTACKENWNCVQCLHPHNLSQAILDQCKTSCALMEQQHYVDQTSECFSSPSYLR
Procedure: as §2, §3

[14] = target: recombinant human αvβ8 integrin (human) (UniProt P06756); experiment: ELISA (DELFIA counts) on human αvβ8, Fab titration
[15] = target: T1, human αvβ8 integrin on U251 cells; experiment: cell-based or functional assay; remark: listed apart in the source
[16] = target: recombinant human αvβ8 integrin (human) (UniProt P06756); experiment: SPR (Biacore), Fab affinity of Table 3

T5 sequence (P43406 31-988 limits assumed, chain 1 of 2): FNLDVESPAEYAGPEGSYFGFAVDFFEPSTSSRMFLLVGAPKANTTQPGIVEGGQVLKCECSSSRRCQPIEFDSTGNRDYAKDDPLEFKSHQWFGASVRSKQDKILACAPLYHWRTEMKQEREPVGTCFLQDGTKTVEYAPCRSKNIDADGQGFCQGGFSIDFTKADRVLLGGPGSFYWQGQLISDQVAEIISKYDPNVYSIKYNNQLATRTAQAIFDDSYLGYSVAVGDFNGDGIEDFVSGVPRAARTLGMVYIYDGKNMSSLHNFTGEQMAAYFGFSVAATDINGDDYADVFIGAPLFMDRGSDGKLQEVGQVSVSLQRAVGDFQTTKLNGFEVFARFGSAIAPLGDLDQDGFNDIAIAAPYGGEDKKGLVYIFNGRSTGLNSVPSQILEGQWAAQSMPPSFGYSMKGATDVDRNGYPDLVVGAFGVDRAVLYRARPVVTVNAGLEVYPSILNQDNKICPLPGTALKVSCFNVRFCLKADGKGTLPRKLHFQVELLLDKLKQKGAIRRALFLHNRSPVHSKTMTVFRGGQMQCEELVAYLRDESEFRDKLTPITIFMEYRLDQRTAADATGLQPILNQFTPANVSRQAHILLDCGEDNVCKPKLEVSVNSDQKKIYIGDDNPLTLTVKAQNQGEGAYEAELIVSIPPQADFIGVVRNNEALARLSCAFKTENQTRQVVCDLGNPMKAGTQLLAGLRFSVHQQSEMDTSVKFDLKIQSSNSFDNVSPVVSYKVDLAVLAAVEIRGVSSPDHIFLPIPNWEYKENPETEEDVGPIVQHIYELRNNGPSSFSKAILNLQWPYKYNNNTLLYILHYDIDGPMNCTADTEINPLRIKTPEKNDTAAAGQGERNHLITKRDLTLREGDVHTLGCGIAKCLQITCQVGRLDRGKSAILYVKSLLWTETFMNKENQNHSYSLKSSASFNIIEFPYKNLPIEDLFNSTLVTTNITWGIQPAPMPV
T5 sequence (Q0VBD0 22-681 limits assumed, chain 2 of 2): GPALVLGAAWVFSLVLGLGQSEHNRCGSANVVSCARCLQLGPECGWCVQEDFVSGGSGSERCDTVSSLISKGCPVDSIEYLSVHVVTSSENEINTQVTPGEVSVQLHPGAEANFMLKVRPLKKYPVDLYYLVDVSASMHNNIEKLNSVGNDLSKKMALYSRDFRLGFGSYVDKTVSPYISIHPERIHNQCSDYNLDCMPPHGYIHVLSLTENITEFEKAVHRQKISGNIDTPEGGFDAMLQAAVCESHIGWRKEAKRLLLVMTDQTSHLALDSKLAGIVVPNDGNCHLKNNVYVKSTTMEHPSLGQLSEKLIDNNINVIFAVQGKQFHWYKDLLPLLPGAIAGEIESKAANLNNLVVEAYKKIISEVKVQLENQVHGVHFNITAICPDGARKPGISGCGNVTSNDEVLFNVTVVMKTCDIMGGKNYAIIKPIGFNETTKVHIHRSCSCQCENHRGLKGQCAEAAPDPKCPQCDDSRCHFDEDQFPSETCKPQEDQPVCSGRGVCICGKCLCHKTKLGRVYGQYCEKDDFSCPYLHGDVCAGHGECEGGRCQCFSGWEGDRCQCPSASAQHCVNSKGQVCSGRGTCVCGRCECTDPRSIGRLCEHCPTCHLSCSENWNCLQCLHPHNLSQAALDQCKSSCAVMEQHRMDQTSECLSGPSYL
T2 sequence (P43406 31-1044 limits assumed, chain 1 of 2): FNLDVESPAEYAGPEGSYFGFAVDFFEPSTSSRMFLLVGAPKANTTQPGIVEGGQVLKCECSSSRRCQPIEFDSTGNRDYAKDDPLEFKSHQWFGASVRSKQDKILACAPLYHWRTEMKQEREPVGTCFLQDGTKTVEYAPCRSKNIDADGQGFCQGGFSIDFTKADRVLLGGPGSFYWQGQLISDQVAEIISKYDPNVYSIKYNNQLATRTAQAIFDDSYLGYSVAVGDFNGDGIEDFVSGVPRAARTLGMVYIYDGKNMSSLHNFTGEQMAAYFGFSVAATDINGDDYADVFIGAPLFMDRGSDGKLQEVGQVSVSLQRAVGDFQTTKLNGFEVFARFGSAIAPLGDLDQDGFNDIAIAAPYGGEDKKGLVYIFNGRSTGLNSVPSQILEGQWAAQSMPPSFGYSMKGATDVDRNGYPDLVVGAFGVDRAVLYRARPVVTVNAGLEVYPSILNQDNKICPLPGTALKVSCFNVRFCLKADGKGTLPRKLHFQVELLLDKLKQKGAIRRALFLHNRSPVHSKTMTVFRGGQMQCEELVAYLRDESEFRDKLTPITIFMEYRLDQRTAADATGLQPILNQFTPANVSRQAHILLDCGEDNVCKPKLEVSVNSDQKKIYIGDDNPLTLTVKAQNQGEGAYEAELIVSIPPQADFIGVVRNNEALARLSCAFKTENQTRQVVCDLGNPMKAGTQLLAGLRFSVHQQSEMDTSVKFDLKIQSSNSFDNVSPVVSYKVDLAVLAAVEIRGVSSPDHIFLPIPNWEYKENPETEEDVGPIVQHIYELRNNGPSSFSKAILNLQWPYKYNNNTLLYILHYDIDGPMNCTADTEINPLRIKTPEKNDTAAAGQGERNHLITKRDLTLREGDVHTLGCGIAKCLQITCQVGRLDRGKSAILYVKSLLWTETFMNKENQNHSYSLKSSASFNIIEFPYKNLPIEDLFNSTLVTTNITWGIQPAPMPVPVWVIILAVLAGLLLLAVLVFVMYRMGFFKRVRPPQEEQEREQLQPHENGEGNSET
T2 sequence (Q0VBD0 22-767 limits assumed, chain 2 of 2): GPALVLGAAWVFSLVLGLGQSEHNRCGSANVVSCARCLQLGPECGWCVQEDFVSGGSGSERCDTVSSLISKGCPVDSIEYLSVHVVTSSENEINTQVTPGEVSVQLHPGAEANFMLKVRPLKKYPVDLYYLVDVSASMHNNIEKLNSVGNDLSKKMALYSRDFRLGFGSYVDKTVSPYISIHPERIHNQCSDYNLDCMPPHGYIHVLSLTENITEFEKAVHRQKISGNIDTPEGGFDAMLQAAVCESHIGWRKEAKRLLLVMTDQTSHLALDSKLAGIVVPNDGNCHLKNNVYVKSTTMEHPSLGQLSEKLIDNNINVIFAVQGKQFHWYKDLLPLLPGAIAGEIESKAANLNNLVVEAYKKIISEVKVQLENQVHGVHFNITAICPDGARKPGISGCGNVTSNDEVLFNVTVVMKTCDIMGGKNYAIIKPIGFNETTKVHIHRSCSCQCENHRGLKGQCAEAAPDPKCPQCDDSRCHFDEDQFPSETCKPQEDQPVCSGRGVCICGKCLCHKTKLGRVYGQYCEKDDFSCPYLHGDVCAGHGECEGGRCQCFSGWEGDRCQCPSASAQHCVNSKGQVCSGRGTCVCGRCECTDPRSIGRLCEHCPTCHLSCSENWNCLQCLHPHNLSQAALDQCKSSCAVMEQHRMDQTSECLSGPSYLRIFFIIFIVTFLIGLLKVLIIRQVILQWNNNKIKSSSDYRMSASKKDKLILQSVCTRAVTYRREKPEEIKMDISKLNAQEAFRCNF
T3 sequence (P06756 31-992 limits assumed, chain 1 of 2): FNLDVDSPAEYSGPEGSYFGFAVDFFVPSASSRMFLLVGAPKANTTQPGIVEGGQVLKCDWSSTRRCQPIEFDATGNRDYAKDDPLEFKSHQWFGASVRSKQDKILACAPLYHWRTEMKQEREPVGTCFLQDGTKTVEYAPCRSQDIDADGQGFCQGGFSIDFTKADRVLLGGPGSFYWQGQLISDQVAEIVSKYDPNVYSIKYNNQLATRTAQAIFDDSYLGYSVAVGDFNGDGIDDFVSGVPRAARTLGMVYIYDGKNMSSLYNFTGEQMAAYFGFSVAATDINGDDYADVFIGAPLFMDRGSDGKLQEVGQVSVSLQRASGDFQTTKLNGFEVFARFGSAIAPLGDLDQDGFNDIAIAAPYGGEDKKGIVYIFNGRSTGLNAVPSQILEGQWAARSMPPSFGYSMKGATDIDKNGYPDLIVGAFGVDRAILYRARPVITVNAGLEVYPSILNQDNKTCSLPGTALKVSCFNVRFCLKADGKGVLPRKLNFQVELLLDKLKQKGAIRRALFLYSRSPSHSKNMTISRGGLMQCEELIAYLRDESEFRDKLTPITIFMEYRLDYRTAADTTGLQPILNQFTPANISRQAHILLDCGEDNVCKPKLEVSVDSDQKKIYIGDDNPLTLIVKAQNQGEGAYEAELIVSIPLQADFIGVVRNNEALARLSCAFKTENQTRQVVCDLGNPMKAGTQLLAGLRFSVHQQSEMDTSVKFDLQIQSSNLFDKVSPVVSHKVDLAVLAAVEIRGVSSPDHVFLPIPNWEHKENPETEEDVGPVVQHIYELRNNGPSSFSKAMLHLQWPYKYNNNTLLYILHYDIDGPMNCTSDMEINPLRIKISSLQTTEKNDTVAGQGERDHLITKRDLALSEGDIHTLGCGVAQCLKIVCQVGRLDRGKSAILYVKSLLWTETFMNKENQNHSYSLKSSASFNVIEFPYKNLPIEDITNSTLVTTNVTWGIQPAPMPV
T3 sequence (P05106 27-718 limits assumed, chain 2 of 2): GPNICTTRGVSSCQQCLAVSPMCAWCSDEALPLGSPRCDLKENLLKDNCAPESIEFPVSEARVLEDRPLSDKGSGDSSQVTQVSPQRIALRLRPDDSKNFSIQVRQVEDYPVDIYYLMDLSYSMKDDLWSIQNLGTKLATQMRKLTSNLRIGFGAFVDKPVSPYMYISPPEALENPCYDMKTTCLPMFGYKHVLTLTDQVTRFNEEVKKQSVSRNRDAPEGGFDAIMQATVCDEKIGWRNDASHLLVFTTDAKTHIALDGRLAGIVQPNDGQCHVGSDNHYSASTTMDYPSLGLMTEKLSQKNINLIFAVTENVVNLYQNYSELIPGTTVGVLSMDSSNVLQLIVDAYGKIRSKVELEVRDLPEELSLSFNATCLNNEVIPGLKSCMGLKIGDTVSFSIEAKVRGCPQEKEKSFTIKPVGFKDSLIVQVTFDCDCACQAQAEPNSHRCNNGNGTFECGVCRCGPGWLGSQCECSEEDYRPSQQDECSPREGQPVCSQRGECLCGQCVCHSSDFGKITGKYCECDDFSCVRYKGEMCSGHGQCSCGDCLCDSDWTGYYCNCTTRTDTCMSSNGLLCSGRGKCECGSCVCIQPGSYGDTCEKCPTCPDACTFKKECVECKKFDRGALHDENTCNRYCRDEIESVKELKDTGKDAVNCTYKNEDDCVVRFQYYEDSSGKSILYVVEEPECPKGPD

B3: ADWA11 VH05-2/VK01 IgG (antibody, V domains shown)
VH: EVQLVESGGGLVQPGGSLRLSCAASGFNIKDYYMNWVRQAPGKGLEWVGWIDPDQGNTIYEPKFQGRFTISADTSKNSAYLQMNSLRAEDTAVYYCARRLLMDYWGQGTLVTVSS
VL: DIQMTQSPSSLSASVGDRVTITCRSTKSLLHFNGNTYLFWYQQKPGKAPKRLIYYMSNLASGVPSRFSGSGSGTDFTLTISSLQPEDFATYYCMQSLEYPFTFGQGTKVEIK
notes: also called ADWA11 5-2_1; VH05/VK01-N55Q-D61E
EC50 [5]: 59.1 pM
binding result [6]: no binding
EC50 [7]: 71.1 pM
binding result [8]: no binding

B4: ADWA11 VH05-2/VK01(2.1) antibody (antibody, V domains shown)
VH: B3 VH
VL: B3 VL with L30S, M94Q, Q105G
notes: also called ADWA11 2.1
EC50 [5]: 106 pM
EC50 [7]: 100 pM

B5: ADWA11 VH05/VK01 Fab (Fab, V domains shown)
VH: B3 VH with Q55N, E61D
VL: B3 VL
notes: Fab; also called VH05-2_VK01 parental
Kd [9]: 118 pM
koff [9]: 2.37e-05 s⁻¹
kon [9]: 200000 M⁻¹ s⁻¹
EC50 (read off the curve) [10]: 1000 pM
Kd [11]: ≤ 100 pM
koff [11]: ≤ 2e-05 s⁻¹
kon [11]: 220000 M⁻¹ s⁻¹
Kd [12]: 160 pM
koff [12]: 3.1e-05 s⁻¹
kon [12]: 194000 M⁻¹ s⁻¹
Kd [13]: ≤ 100 pM
koff [13]: ≤ 2e-05 s⁻¹
kon [13]: 225000 M⁻¹ s⁻¹
EC50 (read off the curve) [14]: 1000 pM
EC50 value measured by apparent affinity in the TGF-β transactivation assay [15]: 1300 pM
Kd [16]: 50 pM and < 100 pM
fold lower KD than the mouse hybridoma antibody ADWA-11 [16]: > 5 fold

The remaining lines, values ahead:

Kd [1]: 823 pM
EC50 [2]: 823 pM
B1: ADWA-11_4 mut (antibody, mouse IgG1, V domains shown)
VH: EVQLQQSGAELVRPGAFVKLSCKASGFNIKDYYMNWVLQRPEQGLEWIGWIDPDNGNTIYDPKFQGKASITADTSSNTAYLQLSSLTSEDTAVYYCARRLLMDYWGQGTSVTVSS
VL: DIVMTQAAPSVPVTPGESVSISCRSTKSLLHFNGNTYLFWFLQRPGQSPQRLIYYMSNLASGVPDRFSGRGSGTDFTLRISRVEAEDVGVYYCMQSLEYPFTFGTGTKLEIK

Kd [1]: 430 pM
EC50 [3]: 434 pM
IgG Potency TGFB Assay IC50 (pM) [4]: 148 pM
B2: hIgG_VH05VK01 (antibody, V domains shown)
VH: B3 VH with Q55N, E61D
VL: DIQMTQSPSSLSASVGDRVTITCRSTKSLLHFNGNTYLFWYQQKPGKAPKRLIYYMSNLASGVPSRFSGSGSGTDFTLTISSLQPEDFATYYCMQSLEYPFTFGQGTKVEIKR

binding result [6]: no binding
binding result [8]: no binding
B6: ADWA11 VH05-1/VK01 IgG (antibody, V domains shown)
VH: B3 VH with Q55N
VL: B3 VL
notes: VH05 with D61E; also called ADWA11 5-1_1; VH05/VK01-D61E
